Laboratory results taken from patent US20170022281A1 (AbbVie / Abbott, published 2017).
Positions count from the first letter of the chain named.

T1: cyno PRLR (Biacore antigen) (cyno, UniProt A0A2K5WXK1 25-234)
T1 construct: also called cyPRLR
T1 sequence: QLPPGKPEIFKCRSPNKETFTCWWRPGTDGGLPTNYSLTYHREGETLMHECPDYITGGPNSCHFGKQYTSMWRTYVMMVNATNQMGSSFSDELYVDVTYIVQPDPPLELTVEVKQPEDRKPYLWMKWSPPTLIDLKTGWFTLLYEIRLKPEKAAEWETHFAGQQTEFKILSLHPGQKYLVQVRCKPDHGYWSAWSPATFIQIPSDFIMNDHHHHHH

T2: human PRLR (Biacore antigen) (human, UniProt P16471 25-234, limits assumed)
T2 construct: The construct injected over captured antibody is not described (a soluble form is likely); also called huPRLR
T2 sequence: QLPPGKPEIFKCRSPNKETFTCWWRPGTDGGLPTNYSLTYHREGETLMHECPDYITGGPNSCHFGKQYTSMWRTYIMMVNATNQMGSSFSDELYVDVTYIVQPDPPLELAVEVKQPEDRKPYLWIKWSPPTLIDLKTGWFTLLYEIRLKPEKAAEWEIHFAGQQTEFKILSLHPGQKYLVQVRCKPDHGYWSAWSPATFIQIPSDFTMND

T3: murine PRLR (Biacore antigen) (murine, UniProt Q08501 20-229, limits assumed)
T3 construct: also called muPRLR
T3 sequence (looked up): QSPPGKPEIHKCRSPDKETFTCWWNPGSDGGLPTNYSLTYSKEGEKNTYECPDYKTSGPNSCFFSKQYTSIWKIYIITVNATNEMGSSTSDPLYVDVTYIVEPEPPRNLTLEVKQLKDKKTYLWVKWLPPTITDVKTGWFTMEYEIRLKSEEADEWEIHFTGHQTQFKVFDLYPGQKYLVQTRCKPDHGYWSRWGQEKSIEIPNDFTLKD

T4: human PRLR ECD-Fc fusion protein (human, UniProt P16471 25-233)
T4 construct: not shown: Fc region (captured by goat anti-human Fc)
T4 sequence: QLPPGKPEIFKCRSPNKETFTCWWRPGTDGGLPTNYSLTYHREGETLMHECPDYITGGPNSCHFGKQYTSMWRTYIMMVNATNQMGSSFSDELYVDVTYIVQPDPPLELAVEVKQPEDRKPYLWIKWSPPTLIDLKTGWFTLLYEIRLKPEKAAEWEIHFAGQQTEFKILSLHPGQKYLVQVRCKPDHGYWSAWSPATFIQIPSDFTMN

T5: cyno PRLR ECD-his6 protein (cyno)
T5 chain: T1 sequence

T6: mouse PRLR on Baf3-mPRLR cells (mouse, UniProt Q08501 20-608)
T6 sequence (looked up): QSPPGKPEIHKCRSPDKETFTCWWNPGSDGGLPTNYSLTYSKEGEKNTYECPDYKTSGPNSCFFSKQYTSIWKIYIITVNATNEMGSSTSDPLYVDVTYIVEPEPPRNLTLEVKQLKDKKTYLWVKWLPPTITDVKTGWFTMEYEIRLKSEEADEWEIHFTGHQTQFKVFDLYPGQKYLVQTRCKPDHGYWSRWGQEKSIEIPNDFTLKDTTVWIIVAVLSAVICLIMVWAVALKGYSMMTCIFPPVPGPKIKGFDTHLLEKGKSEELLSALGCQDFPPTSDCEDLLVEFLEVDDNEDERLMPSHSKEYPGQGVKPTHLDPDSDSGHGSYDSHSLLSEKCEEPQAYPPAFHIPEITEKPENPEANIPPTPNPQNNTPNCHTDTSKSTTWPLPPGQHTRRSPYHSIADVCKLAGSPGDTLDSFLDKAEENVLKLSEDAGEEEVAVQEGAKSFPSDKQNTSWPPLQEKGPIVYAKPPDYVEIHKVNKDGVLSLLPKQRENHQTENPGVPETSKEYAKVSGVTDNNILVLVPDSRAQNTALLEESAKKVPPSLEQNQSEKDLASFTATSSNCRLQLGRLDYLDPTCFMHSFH

T7: human PRLR on cells (human, UniProt P16471 25-622)
T7 sequence: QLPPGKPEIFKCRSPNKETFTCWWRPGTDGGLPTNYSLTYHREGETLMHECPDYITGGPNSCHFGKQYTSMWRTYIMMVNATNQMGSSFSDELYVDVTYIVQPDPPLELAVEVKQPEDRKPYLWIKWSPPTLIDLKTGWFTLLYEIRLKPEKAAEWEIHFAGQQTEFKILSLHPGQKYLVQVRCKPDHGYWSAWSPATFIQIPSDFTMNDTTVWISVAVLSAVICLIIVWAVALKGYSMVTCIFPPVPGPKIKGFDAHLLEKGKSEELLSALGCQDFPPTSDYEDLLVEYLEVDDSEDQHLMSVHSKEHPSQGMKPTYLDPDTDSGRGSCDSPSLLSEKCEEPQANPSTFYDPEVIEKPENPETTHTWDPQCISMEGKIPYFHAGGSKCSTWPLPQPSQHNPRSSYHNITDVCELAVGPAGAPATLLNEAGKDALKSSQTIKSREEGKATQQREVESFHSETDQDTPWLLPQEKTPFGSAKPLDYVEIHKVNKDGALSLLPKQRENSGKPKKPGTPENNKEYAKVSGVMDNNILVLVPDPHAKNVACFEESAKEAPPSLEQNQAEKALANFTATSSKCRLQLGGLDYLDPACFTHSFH

B1: Ab35 (antibody, human IgG1, kappa)
heavy: not shown
light: DIVMTQTPLSLSVTPGQPASISCRSSQSLVHSNGNTYLHWYLQKPGQSPQLLIYKVSNRFSGVPDRFSGSGSGTDFTLKISRVEAEDVGVYYCSQSTHVPFTFGGGTKVEIKRTVAAPSVFIFPPSDEQLKSGTASVVCLLNNFYPREAKVQWKVDNALQSGNSQESVTEQDSKDSTYSLSSTLTLSKADYEKHKVYACEVTHQGLSSPVTKSFNRGEC
notes: humanized from Ab7; G1; also called Ab4 HC.1 and Ab4 LC.1
B2: Ab37 (antibody, human IgG1, kappa)
heavy: not shown
light: B1 light with I2V
notes: humanized from Ab7; G1; also called Ab4 HC.1 and Ab4 LC.1b
B3: Ab38 (antibody, human IgG1, kappa)
heavy: not shown
light: B1 light
notes: humanized from Ab7; G1; also called Ab4 HC.1a and Ab4 LC.1
B4: Ab14 (antibody, human IgG1, kappa, V domains shown)
VH: EVQLVQSGAEVKKPGSSVKVSCKASGYTFTTYWMHWVRQAPGQGLEWMGEIDPSDSYSNYNQKFKDRVTITADKSTSTAYMELSSLRSEDTAVYYCARNGGLGPAWFSYWGQGTLVTVSS
VL: DIQMTQSPSSVSASVGDRVTITCKASQYVGTAVAWYQQKPGKAPKLLIYSASNRYTGVPSRFSGSGSGTDFTLTISSLQPEDFATYYCQQYSSYPWTFGGGTKVEIKR
notes: humanized from Ab6; G1; also called Ab1 HC.1 & Ab1 LC.1
B5: Ab16 (antibody, human IgG1, kappa, V domains shown)
VH: B4 VH
VL: EIVMTQSPATLSVSPGERATLSCKASQYVGTAVAWYQQKPGQAPRLLIYSASNRYTGIPARFSGSGSGTEFTLTISSLQSEDFAVYYCQQYSSYPWTFGGGTKVEIKR
notes: humanized from Ab6; G1; also called Ab1 HC.1 and Ab1 LC.2
B6: Ab17 (antibody, human IgG1, kappa, V domains shown)
VH: B4 VH
VL: B5 VL with A43S, I58V, G64D, Y87F
notes: humanized from Ab6; G1; also called Ab1 HC.1 and Ab1 LC.2a
B7: Ab20 (antibody, human IgG1, kappa, V domains shown)
VH: B4 VH with M48I, V68A, I70L, A72V
VL: B5 VL
notes: humanized from Ab6; G1; also called Ab1 HC.1a and Ab1 LC.2
B8: Ab18 (antibody, human IgG1, kappa, V domains shown)
VH: B4 VH with M48I, V68A, I70L, A72V
VL: B4 VL
notes: humanized from Ab6; G1; also called Ab1 HC.1a and Ab1 LC.1
B9: Ab15 (antibody, human IgG1, kappa, V domains shown)
VH: B4 VH
VL: B4 VL with A43S, G64D, Y87F
notes: humanized from Ab6; G1; also called Ab1 HC.1 and Ab1 LC.1a
B10: Ab47 (antibody, human IgG1, kappa, V domains shown)
VH: EVQLVQSGAEVKKPGASVKVSCKASGYTFTDYNIHWVRQAPGQGLEWIGYIYPNNDGTGYNQKFKSRATLTVDNSTSTAYMELRSLRSDDTAVYYCARGDGNYVGDMDYWGQGTTVTVSS
VL: DIQMTQSPSSLSASVGDRVTITCRASENIYSYLAWYQQKPGKAPKLLIYNAKTLAEGVPSRFSGSGSGTDFTLTISSLQPEDFATYYCQHHYATPFTFGQGTKLEIKR
notes: humanized from Ab8; G1; also called Ab3 HC.1a and Ab3 LC.1

target: T1, cyno PRLR (Biacore antigen); test: SPR Biacore
Summary of the method: (§1)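 Association rate, dissociation rate and dissociation constant were measured by surface plasmon resonance on a Biacore instrument. PRLR antigen was tested at 600 nM, 66.67 nM and 7.41 nM, a 3-point, 9-fold dilution series. Constants came from a 1:1 binding model fit (local Rmax, mass-transport term included) in Biacore T200 Evaluation Software.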

| Binder | Kd | koff | kon |
| --- | --- | --- | --- |
| B1 | 13.5 nM | 0.00142 s⁻¹ | 105000 M⁻¹ s⁻¹ |
| B2 | 12.3 nM | 0.00132 s⁻¹ | 107000 M⁻¹ s⁻¹ |
| B3 | 6.04 nM | 0.000756 s⁻¹ | 125000 M⁻¹ s⁻¹ |

target: T2, human PRLR (Biacore antigen); test: SPR Biacore
Summary of the method: as §1

| Binder | Kd | koff | kon |
| --- | --- | --- | --- |
| B1 | 13.3 nM | 0.0016 s⁻¹ | 120000 M⁻¹ s⁻¹ |
| B2 | 12.3 nM | 0.00146 s⁻¹ | 119000 M⁻¹ s⁻¹ |
| B3 | 6.22 nM | 0.000879 s⁻¹ | 141000 M⁻¹ s⁻¹ |
| B4 | 4.16 nM | 0.00458 s⁻¹ | 1.1e+06 M⁻¹ s⁻¹ |
| B5 | 4.05 nM | 0.00562 s⁻¹ | 1.39e+06 M⁻¹ s⁻¹ |
| B6 | 1.06 nM | 0.00132 s⁻¹ | 1.25e+06 M⁻¹ s⁻¹ |
| B7 | 2 nM | 0.00208 s⁻¹ | 1.04e+06 M⁻¹ s⁻¹ |
| B8 | 1.62 nM | 0.00171 s⁻¹ | 1.06e+06 M⁻¹ s⁻¹ |
| B9 | 0.837 nM | 0.000972 s⁻¹ | 1.16e+06 M⁻¹ s⁻¹ |

target: T3, murine PRLR (Biacore antigen); test: SPR Biacore
Summary of the method: as §1

| Binder | Kd | koff | kon |
| --- | --- | --- | --- |
| B1 | 1580 nM | 0.0785 s⁻¹ | 49800 M⁻¹ s⁻¹ |
| B2 | 1670 nM | 0.0687 s⁻¹ | 41100 M⁻¹ s⁻¹ |
| B3 | 994 nM | 0.0527 s⁻¹ | 53000 M⁻¹ s⁻¹ |
| B7 | 620 nM | – | – |

target: T4, human PRLR ECD-Fc fusion protein; test: ELISA on ECD
Description: (§2) Plates were blocked for 1 hour with Superblock (Pierce) and washed (3×) with wash buffer (lx PBS (pH 7.4), 0.05% Tween 20). ECD proteins were bound to the appropriate antibody (1 hour) in binding buffer (wash buffer plus 10% Superblock), washed (3×, wash buffer), and then incubated with serial dilutions of antibodies (1 hour) in binding buffer. After washing (3×, wash buffer), secondary antibodies conjugated to HRP were bound (1 hour) in binding buffer, washed (3×, wash buffer), and incubated with TMB substrate (Pierce) to develop signal for 3-5 minutes, stopped with 2N H₂SO₄ and scanned at […]. Curves were fit with GraphPad 5 (Prizm) and EC50's were determined with curve fitting function of GraphPad 5.

| Binder | EC50 |
| --- | --- |
| B1 | 2.5 nM |
| B2 | 0.184 nM |
| B3 | 0.346 nM |
| B10 | 0.0819 nM |
| B4 | 0.0329 nM |
| B5 | 0.0641 nM |
| B6 | 0.0766 nM |
| B7 | 0.0836 nM |
| B8 | 0.0675 nM |
| B9 | 0.0781 nM |

Target: T5, cyno PRLR ECD-his6 protein
Test: ELISA on ECD
Description: as §2

| Binder | EC50 |
| --- | --- |
| B1 | 0.32 nM |
| B2 | 0.186 nM |
| B3 | 0.264 nM |
| B10 | 0.119 nM |
| B4 | 0.031 nM |
| B5 | 0.0671 nM |
| B6 | 0.0788 nM |
| B7 | 0.0711 nM |
| B8 | 0.111 nM |
| B9 | 0.0551 nM |

target: cyno PRLR on Baf3-cyPRLR cells (cyno); test: cell-based or functional assay

| Binder | Baf3-cyPRLR proliferation IC50 |
| --- | --- |
| B1 | 0.65 µg/mL |
| B2 | 0.44 µg/mL |
| B3 | 0.25 µg/mL |
| B10 | 3.01 µg/mL |
| B4 | 1.15 µg/mL |
| B5 | 1.73 µg/mL |
| B6 | 0.27 µg/mL |
| B7 | 0.5 µg/mL |
| B8 | 0.4 µg/mL |
| B9 | 0.19 µg/mL |

target: T6, mouse PRLR on Baf3-mPRLR cells; test: cell-based or functional assay

| Binder | Baf3-mPRLR proliferation IC50 |
| --- | --- |
| B1 | > 30 µg/mL |
| B2 | > 30 µg/mL |
| B3 | > 30 µg/mL |
| B10 | > 30 µg/mL |
| B4 | > 30 µg/mL |
| B5 | > 30 µg/mL |
| B6 | > 30 µg/mL |
| B7 | > 30 µg/mL |
| B8 | > 30 µg/mL |
| B9 | > 30 µg/mL |

target: T7, human PRLR on cells; test: cell-based or functional assay

| Binder | Baf3-hPRLR proliferation IC50 |
| --- | --- |
| B1 | 0.38 µg/mL |
| B2 | 0.43 µg/mL |
| B3 | 0.42 µg/mL |
| B10 | 0.4 µg/mL |
| B4 | 0.3 µg/mL |
| B5 | 0.46 µg/mL |
| B6 | 0.14 µg/mL |
| B7 | 0.2 µg/mL |
| B8 | 0.15 µg/mL |
| B9 | 0.13 µg/mL |
